From patent CN116355099A (BEIJING KENUO XINCHENG TECH CO LTD, dated 2023)

T1: 人OX40胞外区重组蛋白(OX40-His) (human, UniProt P43489 29-214)
T1 construct: extracellular domain; also called 人OX40重组蛋白(10481-H08H，北京义翘神州); 人OX40胞外区融合蛋白; not shown: His tag
T1 sequence (looked up): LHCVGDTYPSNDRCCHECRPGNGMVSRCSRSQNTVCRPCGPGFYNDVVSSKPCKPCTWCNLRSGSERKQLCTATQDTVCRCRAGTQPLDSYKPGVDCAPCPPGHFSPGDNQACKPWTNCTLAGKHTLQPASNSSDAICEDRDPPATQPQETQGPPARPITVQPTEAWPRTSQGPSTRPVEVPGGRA

T2: human OX40 on HT1080-hOX40 cells (human, UniProt P43489 29-277)
T2 sequence (looked up): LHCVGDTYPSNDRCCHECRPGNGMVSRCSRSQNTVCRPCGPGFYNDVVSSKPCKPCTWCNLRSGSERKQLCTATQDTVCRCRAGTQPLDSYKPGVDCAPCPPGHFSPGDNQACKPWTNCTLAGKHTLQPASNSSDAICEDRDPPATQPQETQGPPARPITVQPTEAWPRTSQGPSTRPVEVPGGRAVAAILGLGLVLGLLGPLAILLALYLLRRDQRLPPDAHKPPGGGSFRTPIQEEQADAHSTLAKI


Columns and labels:
人OX40胞外区重组蛋白(OX40-His) [1] = biological target: T1, 人OX40胞外区重组蛋白(OX40-His); experiment: ELISA, OX40-His coated
PD-L1-mFc = biological target: T3, PD-L1-mFc (UniProt Q9NZQ7 19-238, limits assumed); experiment: competition ELISA: PD-1-hFc coated, PD-L1-mFc 1 ug/ml in solution, blocking of PD-L1 binding to PD-1
T3 construct: also called 重组PD-L1; not shown: mouse Fc (mFc)
T3 sequence (Q9NZQ7 19-238 limits assumed): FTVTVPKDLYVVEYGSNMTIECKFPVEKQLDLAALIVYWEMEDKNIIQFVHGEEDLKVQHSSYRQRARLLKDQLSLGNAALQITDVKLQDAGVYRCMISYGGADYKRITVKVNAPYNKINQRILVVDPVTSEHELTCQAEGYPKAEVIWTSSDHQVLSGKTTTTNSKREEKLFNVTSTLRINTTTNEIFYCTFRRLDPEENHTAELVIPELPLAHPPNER

人OX40胞外区重组蛋白(OX40-His) [2] = biological target: T1, 人OX40胞外区重组蛋白(OX40-His); experiment: ELISA, OX40-His coated at 1 ug/mL, anti-human Fc-HRP detection
人PD-L1胞外区重组蛋白(PD-L1-His) [3] = biological target: T4, 人PD-L1胞外区重组蛋白(PD-L1-His) (human, UniProt Q9NZQ7 19-238); experiment: ELISA, PD-L1-His coated at 1 ug/mL, anti-human Fc-HRP detection
T4 construct: extracellular domain; also called 人PD-L1重组蛋白(10084-H08H，北京义翘神州); 人PD-L1胞外区融合蛋白; not shown: His tag
T4 sequence (Q9NZQ7 19-238): as the sequence (Q9NZQ7 19-238 limits assumed) above

[4] = biological target: T2, human OX40 on HT1080-hOX40 cells; experiment: cell-based or functional assay
[5] = biological target: PD-L1 on CHO-PD-L1-CD3L cells (UniProt Q9NZQ7 19-290, limits assumed); experiment: cell-based or functional assay
Sequence of PD-L1 on CHO-PD-L1-CD3L cells (Q9NZQ7 19-290 limits assumed): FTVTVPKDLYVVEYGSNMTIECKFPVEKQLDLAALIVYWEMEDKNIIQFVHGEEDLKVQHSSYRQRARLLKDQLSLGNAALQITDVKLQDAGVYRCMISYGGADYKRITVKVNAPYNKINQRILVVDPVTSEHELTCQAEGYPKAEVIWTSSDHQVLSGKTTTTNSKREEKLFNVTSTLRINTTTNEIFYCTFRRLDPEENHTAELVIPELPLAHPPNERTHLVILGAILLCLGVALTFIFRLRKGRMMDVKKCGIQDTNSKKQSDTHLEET

人PD-L1胞外区重组蛋白(PD-L1-His) [6] = biological target: T4, 人PD-L1胞外区重组蛋白(PD-L1-His); experiment: BLI (Octet QKe), antibody captured on AHC probe, antigen in solution, 1:1 Langmuir fit
人OX40胞外区重组蛋白(OX40-His) [7] = biological target: T1, 人OX40胞外区重组蛋白(OX40-His); experiment: as above

Row | binding result (人OX40胞外区重组蛋白(OX40-His) [1]) | IC50 (PD-L1-mFc) [nM] | EC50 (人OX40胞外区重组蛋白(OX40-His) [2]) [nM] | EC50 (人PD-L1胞外区重组蛋白(PD-L1-His) [3]) [nM] | 刺激HT1080-huOX40细胞表达IL8活性, EC50 [4] [µg/mL] | 对PD-1/PD-L1信号通路的阻断活性 (Jurkat-PD1-NFAT / CHO-PD-L1-CD3L luciferase reporter), IC50 [5] [nM] | Kd (人PD-L1胞外区重组蛋白(PD-L1-His) [6]) [nM] | Kd (人OX40胞外区重组蛋白(OX40-His) [7]) [nM] | Binder
1 | binds |  |  |  |  |  |  |  | 抗OX40人源化抗体hz27G12 (antibody, V domains shown, Parental humanised anti-OX40 monoclonal antibody (from CN202010063141.3); also called 单抗hz27G12) VH: EVQLVQSGAEVKKPGASVKVSCKASGYTFTEYIIHWVRQAPGQGLEWIGWFYPESGSIKYNEKFKDRVTITRDTSTSTVYMELSSLRSEDTAVYYCARHEDPITFAYWGQGTLVTVSS VL: EIVMTQSPATLSVSPGERATLSCKASQSVDYEGDSYMNWYQQKPGQAPKLLIYAASNLESGIPARFSGSGSGTDFTLTISSLEPEDFATYYCQQSNEDPYTFGGGTKVEIK
2 | binds |  |  |  |  |  |  |  | 抗OX40人源化抗体hz25A7 (antibody, V domains shown, Parental humanised anti-OX40 monoclonal antibody (from CN202010063141.3); also called 单抗hz25A7) VH: EVQLVESGGGLVQPGRSLRLSCAASGFTFSSHDMSWVRQAPGKGLELVAAINSEGGRIYYPDTMERRFTISRDNSKNTLYLQMNSLRAEDTAVYYCARHYDNYAWFAYWGQGTLVTVSS VL: DIQMTQSPSSLSASVGDRVTITCRASKSVSTSGSSYIHWYQQKPGKAPKLLIYLASNLESGVPSRFSGSGSGTDFTLTISSLQPEDFATYYCQHSRELPLTFGGGTKVEIK
3 |  | 6.84 | 0.0877 | 0.563 | 0.247 | 4.75 | 1 | 5 | hz25A7-hzF2 (bispecific antibody, human IgG1, kappa, Symmetric four-chain molecule (two of peptide chain 1, two of peptide chain 2); expressed in HEK293, purified on Protein A; also called 抗PD-L1/OX40双特异性抗体 hz25A7-hzF2; OX40/PD-L1双特异性抗体) heavy: not shown light: DIQMTQSPSSLSASVGDRVTITCRASKSVSTSGSSYIHWYQQKPGKAPKLLIYLASNLESGVPSRFSGSGSGTDFTLTISSLQPEDFATYYCQHSRELPLTFGGGTKVEIKRTVAAPSVFIFPPSDEQLKSGTASVVCLLNNFYPREAKVQWKVDNALQSGNSQESVTEQDSKDSTYSLSSTLTLSKADYEKHKVYACEVTHQGLSSPVTKSFNRGEC
4 |  | 7.12 | 0.0781 | 0.651 | 2.28 | 3.38 | 1.3 | 8 | hz27G12-hzF2 (bispecific antibody, human IgG1, kappa, Symmetric four-chain molecule (two of peptide chain 1, two of peptide chain 2); expressed in HEK293, purified on Protein A; also called 抗PD-L1/OX40双特异性抗体 hz27G12-hzF2; OX40/PD-L1双特异性抗体) heavy: not shown light: EIVMTQSPATLSVSPGERATLSCKASQSVDYEGDSYMNWYQQKPGQAPKLLIYAASNLESGIPARFSGSGSGTDFTLTISSLEPEDFATYYCQQSNEDPYTFGGGTKVEIKRTVAAPSVFIFPPSDEQLKSGTASVVCLLNNFYPREAKVQWKVDNALQSGNSQESVTEQDSKDSTYSLSSTLTLSKADYEKHKVYACEVTHQGLSSPVTKSFNRGEC
